These are literature values, as cited in publication PMC5075240.

pKd: −log10 of the molar value.

For the data set, the target named is calmodulin (UniProt P0DP23).

The pKd is the negative decadic logarithm of the Kd, by convention in mol/L. As for “TRPV1 C-terminal fragment 767-801 (from UniProt O35433)”, the pKd is 7.30.
